# PMC4270374 (Biochemistry, 2014)
# Molecular target: the molecule itself
# Assay: crystal structure
row,Protein,stoichiometry N
1,"AfUGMY104A (UDP-galactopyranose mutase from Aspergillus fumigatus, Y104A on the K344A/K345A background) (enzyme) MTHPDISVDVLVIGAGPTGLGAAKRLNQIDGPSWMIVDSNETPGGLASTDVTPEGFLYDVGGHVIFSHYKYFDDCLDEALPKEDDWYTHQRISYVRCQGQWVPAPFQNNISMLPKEEQVKCIDGMIDAALEARVANTKPKTFDEWIVRMMGTGIADLFMRPYNFKVWAVPTTKMQCAWLGERVAAPNLKAVTTNVILGKTAGNWGPNATFRFPARGGTGGIWIAVANTLPKEKTRFGEKGKVTKVNANNKTVTLQDGTTIGYKKLVSTMAVDFLAEAMNDQELVGLTKQLFYSSTHVIGVGVRGSRPERIGDKCWLYFPEDNCPFYRATIFSNYSPYNQPEASAALPTMQLADGSRPQSTEAKEGPYWSIMLEVSESSMKPVNQETILADCIQGLVNTEMLKPTDEIVSTYHRRFDHGYPTPTLEREGALTQILPKLQDKDIWSRGRFGSWRYEVGNQDHSFMLGVEAVDNIVNGAVELTLNYPDFVNGRQNTERRLVDGAQVFAKSKAQ",4
2,"AfUGMY317A (UDP-galactopyranose mutase from Aspergillus fumigatus, Y317A on the K344A/K345A background) (enzyme) MTHPDISVDVLVIGAGPTGLGAAKRLNQIDGPSWMIVDSNETPGGLASTDVTPEGFLYDVGGHVIFSHYKYFDDCLDEALPKEDDWYTHQRISYVRCQGQWVPYPFQNNISMLPKEEQVKCIDGMIDAALEARVANTKPKTFDEWIVRMMGTGIADLFMRPYNFKVWAVPTTKMQCAWLGERVAAPNLKAVTTNVILGKTAGNWGPNATFRFPARGGTGGIWIAVANTLPKEKTRFGEKGKVTKVNANNKTVTLQDGTTIGYKKLVSTMAVDFLAEAMNDQELVGLTKQLFYSSTHVIGVGVRGSRPERIGDKCWLAFPEDNCPFYRATIFSNYSPYNQPEASAALPTMQLADGSRPQSTEAKEGPYWSIMLEVSESSMKPVNQETILADCIQGLVNTEMLKPTDEIVSTYHRRFDHGYPTPTLEREGALTQILPKLQDKDIWSRGRFGSWRYEVGNQDHSFMLGVEAVDNIVNGAVELTLNYPDFVNGRQNTERRLVDGAQVFAKSKAQ",4
3,"AfUGMN207A (UDP-galactopyranose mutase from Aspergillus fumigatus, N207A on the K344A/K345A background) (enzyme) MTHPDISVDVLVIGAGPTGLGAAKRLNQIDGPSWMIVDSNETPGGLASTDVTPEGFLYDVGGHVIFSHYKYFDDCLDEALPKEDDWYTHQRISYVRCQGQWVPYPFQNNISMLPKEEQVKCIDGMIDAALEARVANTKPKTFDEWIVRMMGTGIADLFMRPYNFKVWAVPTTKMQCAWLGERVAAPNLKAVTTNVILGKTAGNWGPAATFRFPARGGTGGIWIAVANTLPKEKTRFGEKGKVTKVNANNKTVTLQDGTTIGYKKLVSTMAVDFLAEAMNDQELVGLTKQLFYSSTHVIGVGVRGSRPERIGDKCWLYFPEDNCPFYRATIFSNYSPYNQPEASAALPTMQLADGSRPQSTEAKEGPYWSIMLEVSESSMKPVNQETILADCIQGLVNTEMLKPTDEIVSTYHRRFDHGYPTPTLEREGALTQILPKLQDKDIWSRGRFGSWRYEVGNQDHSFMLGVEAVDNIVNGAVELTLNYPDFVNGRQNTERRLVDGAQVFAKSKAQ",4
4,"AfUGMQ107A (UDP-galactopyranose mutase from Aspergillus fumigatus, Q107A on the K344A/K345A background) (enzyme) MTHPDISVDVLVIGAGPTGLGAAKRLNQIDGPSWMIVDSNETPGGLASTDVTPEGFLYDVGGHVIFSHYKYFDDCLDEALPKEDDWYTHQRISYVRCQGQWVPYPFANNISMLPKEEQVKCIDGMIDAALEARVANTKPKTFDEWIVRMMGTGIADLFMRPYNFKVWAVPTTKMQCAWLGERVAAPNLKAVTTNVILGKTAGNWGPNATFRFPARGGTGGIWIAVANTLPKEKTRFGEKGKVTKVNANNKTVTLQDGTTIGYKKLVSTMAVDFLAEAMNDQELVGLTKQLFYSSTHVIGVGVRGSRPERIGDKCWLYFPEDNCPFYRATIFSNYSPYNQPEASAALPTMQLADGSRPQSTEAKEGPYWSIMLEVSESSMKPVNQETILADCIQGLVNTEMLKPTDEIVSTYHRRFDHGYPTPTLEREGALTQILPKLQDKDIWSRGRFGSWRYEVGNQDHSFMLGVEAVDNIVNGAVELTLNYPDFVNGRQNTERRLVDGAQVFAKSKAQ",4
